From paper PMC7064760

Target: HA-tagged p26 (long-distance movement protein p26 of Pea enation mosaic virus 2) (Pea enation mosaic virus 2)
Test: SDS-PAGE and Western blot; lysates of agroinfiltrated N. benthamiana leaves (10x PBS, 2% beta-mercaptoethanol), 10% SDS-PAGE, blot with anti-HA antibody; co-infiltrated with p14, GFP-3'UTR(PEMV) and U1D

**Q.** For “HA-tagged p26 (long-distance movement protein p26 of Pea enation mosaic virus 2) (natural protein)”, which stoichiometry N is on record?
**A.** 2
